These are literature values, as cited in PMC4599702.

Data set [1] has as its target p300 KIX (Homo sapiens) (UniProt Q09472). Briefly: microscale thermophoresis.
Data set [2] has as its target CBP KIX (Homo sapiens) (UniProt Q92793).
UniProt Q92793, sequence (Q92793 584-669): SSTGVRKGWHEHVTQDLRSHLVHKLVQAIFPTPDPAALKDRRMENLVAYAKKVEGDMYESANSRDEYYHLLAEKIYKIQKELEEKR

UniProt Q09472, sequence (Q09472 563-648): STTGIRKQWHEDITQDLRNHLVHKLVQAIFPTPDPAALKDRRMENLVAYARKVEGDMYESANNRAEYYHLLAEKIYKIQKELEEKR

Regarding Myb (from UniProt P10242), the Kd in data set [1] is 2500 nM; in data set [2] it was 650 nM.

For orientation: Kd means the constant that tells how readily two partners part at equilibrium.
